Publication PMC8343073

Assays:
[1] = tested on: DdbA (Chlamydia trachomatis L2); experiment: BLI; details: BLI (Octet QKe, Ni-NTA sensors, His-protein immobilized): 0.1 M phosphate, 0.15 M NaCl, pH 7.2; nucleic acid 720, 240, 80 nM; temperature not stated
[2] = tested on: HctA (Chlamydia trachomatis L2); experiment: BLI; details: BLI (Octet QKe, Ni-NTA sensors, His-protein immobilized): 0.1 M phosphate, 0.15 M NaCl, pH 7.2; nucleic acid 720, 240, 80 nM; temperature not stated

dsDNA oligo 60% GC
Kd [1]: 7.3 nM | Kd [2]: 2.3 nM
